Source: patent US20230220589A1
Values belong to the binder of their own block, whether it stands above or below them.

Key:
[1] = target: M44-modified L NTAA target peptides (M44-L-P2-peptide); test: encoding assay; P2 N;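 note: fraction of recording tags encoded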
[2] = target: M44-modified Y NTAA target peptides (M44-Y-P2-peptide); test: encoding assay; P2 N;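 note: fraction of recording tags encoded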
[3] = target: M44-modified I NTAA target peptides (M44-I-P2-peptide); test: encoding assay; P2 N
[4] = target: M44-modified F NTAA target peptides (M44-F-P2-peptide); test: encoding assay; P2 N;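 note: fraction of recording tags encoded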
[5] = target: M44-modified H NTAA target peptides; test: encoding assay; P2 N
[6] = target: M44-modified D NTAA target peptides; test: encoding assay; P2 N;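 note: fraction of recording tags encoded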
[7] = target: M44-modified W NTAA target peptides; test: encoding assay; P2 N;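 note: fraction of recording tags encoded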
[8] = target: M44-modified N NTAA target peptides; test: encoding assay; P2 N
[9] = target: M44-modified V NTAA target peptides; test: encoding assay; P2 N;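 note: fraction of recording tags encoded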
[10] = target: M44-modified Q NTAA target peptides; test: encoding assay; P2 N
[11] = target: M44-modified S NTAA target peptides; test: encoding assay; P2 N
[12] = target: M44-modified E NTAA target peptides; test: encoding assay; P2 N;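 note: fraction of recording tags encoded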
[13] = target: M44-modified M NTAA target peptides; test: encoding assay; P2 N
[14] = target: M44-modified L NTAA target peptides (M44-L-P2-peptide); test: encoding assay; P2 P;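 note: fraction of recording tags encoded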
[15] = target: M44-modified Y NTAA target peptides (M44-Y-P2-peptide); test: encoding assay; P2 P;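 note: fraction of recording tags encoded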
[16] = target: M44-modified I NTAA target peptides (M44-I-P2-peptide); test: encoding assay; P2 P
[17] = target: M44-modified F NTAA target peptides (M44-F-P2-peptide); test: encoding assay; P2 P;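 note: fraction of recording tags encoded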
[18] = target: M44-modified H NTAA target peptides; test: encoding assay; P2 P
[19] = target: M44-modified D NTAA target peptides; test: encoding assay; P2 P;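 note: fraction of recording tags encoded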
[20] = target: M44-modified N NTAA target peptides; test: encoding assay; P2 P
[21] = target: M44-modified A NTAA target peptides (M44-A-P2-peptide); test: encoding assay; P2 P
[22] = target: M44-modified Q NTAA target peptides; test: encoding assay; P2 P
[23] = target: M44-modified S NTAA target peptides; test: encoding assay; P2 P
[24] = target: M44-modified E NTAA target peptides; test: encoding assay; P2 P;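 note: fraction of recording tags encoded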
[25] = target: M44-modified M NTAA target peptides; test: encoding assay; P2 P
[26] = target: M44-modified I NTAA target peptides (M44-I-P2-peptide); test: encoding assay; P2 G
[27] = target: M44-modified L NTAA target peptides (M44-L-P2-peptide); test: encoding assay; P2 D;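 note: fraction of recording tags encoded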
[28] = target: M44-modified Y NTAA target peptides (M44-Y-P2-peptide); test: encoding assay; P2 D;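 note: fraction of recording tags encoded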
[29] = target: M44-modified I NTAA target peptides (M44-I-P2-peptide); test: encoding assay; P2 D
[30] = target: M44-modified F NTAA target peptides (M44-F-P2-peptide); test: encoding assay; P2 D;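 note: fraction of recording tags encoded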
[31] = target: M44-modified W NTAA target peptides; test: encoding assay; P2 D;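 note: fraction of recording tags encoded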
[32] = target: M44-modified N NTAA target peptides; test: encoding assay; P2 D
[33] = target: M44-modified G NTAA target peptides (M44-G-P2-peptide); test: encoding assay; P2 D;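 note: fraction of recording tags encoded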
[34] = target: M44-modified A NTAA target peptides (M44-A-P2-peptide); test: encoding assay; P2 D
[35] = target: M44-modified Q NTAA target peptides; test: encoding assay; P2 D
[36] = target: M44-modified M NTAA target peptides; test: encoding assay; P2 D
[37] = target: M44-modified L NTAA target peptides (M44-L-P2-peptide); test: encoding assay; P2 H;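 note: fraction of recording tags encoded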
[38] = target: M44-modified Y NTAA target peptides (M44-Y-P2-peptide); test: encoding assay; P2 H;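 note: fraction of recording tags encoded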
[39] = target: M44-modified I NTAA target peptides (M44-I-P2-peptide); test: encoding assay; P2 H
[40] = target: M44-modified T NTAA target peptides; test: encoding assay; P2 H
[41] = target: M44-modified F NTAA target peptides (M44-F-P2-peptide); test: encoding assay; P2 H;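 note: fraction of recording tags encoded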
[42] = target: M44-modified H NTAA target peptides; test: encoding assay; P2 H
[43] = target: M44-modified D NTAA target peptides; test: encoding assay; P2 H;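 note: fraction of recording tags encoded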
[44] = target: M44-modified W NTAA target peptides; test: encoding assay; P2 H;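 note: fraction of recording tags encoded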
[45] = target: M44-modified N NTAA target peptides; test: encoding assay; P2 H
[46] = target: M44-modified P NTAA target peptides; test: encoding assay; P2 H;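 note: fraction of recording tags encoded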
[47] = target: M44-modified V NTAA target peptides; test: encoding assay; P2 H;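 note: fraction of recording tags encoded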
[48] = target: M44-modified A NTAA target peptides (M44-A-P2-peptide); test: encoding assay; P2 H
[49] = target: M44-modified Q NTAA target peptides; test: encoding assay; P2 H
[50] = target: M44-modified M NTAA target peptides; test: encoding assay; P2 H

encoding yield [1]: 0.04
encoding yield [2]: 0.05
encoding yield [3]: 0.03
encoding yield [4]: 0
encoding yield [5]: 0.03
encoding yield [6]: 0.02
encoding yield [7]: 0.01
encoding yield [8]: 0.05
encoding yield [9]: 0.08
encoding yield [10]: 0.04
encoding yield [11]: 0.05
encoding yield [12]: 0.03
encoding yield [13]: 0.02
encoding yield [14]: 0.04
encoding yield [15]: 0.02
encoding yield [16]: 0.03
encoding yield [17]: 0.04
encoding yield [18]: 0.04
encoding yield [19]: 0.04
encoding yield [20]: 0.02
encoding yield [21]: 0.03
encoding yield [22]: 0.03
encoding yield [23]: 0.05
encoding yield [24]: 0.03
encoding yield [25]: 0.02
encoding yield [26]: 0.08
encoding yield [27]: 0.04
encoding yield [28]: 0.03
encoding yield [29]: 0.02
encoding yield [30]: 0.06
encoding yield [31]: 0.03
encoding yield [32]: 0.02
encoding yield [33]: 0.03
encoding yield [34]: 0.03
encoding yield [35]: 0.02
encoding yield [36]: 0.04
encoding yield [37]: 0.03
encoding yield [38]: 0.07
encoding yield [39]: 0.04
encoding yield [40]: 0.04
encoding yield [41]: 0.02
encoding yield [42]: 0.02
encoding yield [43]: 0.04
encoding yield [44]: 0.03
encoding yield [45]: 0.05
encoding yield [46]: 0.05
encoding yield [47]: 0.03
encoding yield [48]: 0.05
encoding yield [49]: 0.05
encoding yield [50]: 0.04
B1: engineered M44-A binder (SEQ ID NO: 42) (designed binder, not shown: small tags and cut ends; large carriers)
chain: QVSVQPNFQQDKFLGRWFVAGLASNSSWDREKVAALSGAKMVVAPATDGGLNVTRTMLRKNQCETYTGLLQPAGSLGSYSWRSPHPGSTGSESVVETDYDQYALVYGQGSKGPGEDLRAAALWSRTQTPRAELKEKFTAFSKAQGFTEDTIVFLPQTDKCMTEQ

encoding yield [1]: 0.16
encoding yield [2]: 0.01
encoding yield [3]: 0.09
encoding yield [4]: 0
encoding yield [5]: 0.01
encoding yield [6]: 0.01
encoding yield [7]: 0.01
encoding yield [8]: 0.01
encoding yield [9]: 0.03
encoding yield [10]: 0.01
encoding yield [11]: 0.01
encoding yield [12]: 0.01
encoding yield [13]: 0.02
encoding yield [14]: 0.09
encoding yield [15]: 0.02
encoding yield [16]: 0.01
encoding yield [17]: 0.09
encoding yield [18]: 0.01
encoding yield [19]: 0.01
encoding yield [20]: 0.01
encoding yield [21]: 0.01
encoding yield [22]: 0.01
encoding yield [23]: 0.02
encoding yield [24]: 0.01
encoding yield [25]: 0.04
encoding yield [26]: 0.17
encoding yield [27]: 0.01
encoding yield [28]: 0.01
encoding yield [29]: 0
encoding yield [30]: 0.01
encoding yield [31]: 0.01
encoding yield [32]: 0.01
encoding yield [33]: 0.01
encoding yield [34]: 0.01
encoding yield [35]: 0.01
encoding yield [36]: 0.01
encoding yield [37]: 0
encoding yield [38]: 0.02
encoding yield [39]: 0.01
encoding yield [40]: 0.01
encoding yield [41]: 0.01
encoding yield [42]: 0.01
encoding yield [43]: 0.01
encoding yield [44]: 0.01
encoding yield [45]: 0.01
encoding yield [46]: 0.01
encoding yield [47]: 0.01
encoding yield [48]: 0.01
encoding yield [49]: 0.01
encoding yield [50]: 0.01
B2: engineered M44-L binder (SEQ ID NO: 21) (designed binder, not shown: small tags and cut ends; large carriers)
chain: QVSVQPNFQQDKFLGRWFYAGHASNSSWYREKVAALSMAKLVVAPATDGGLNATETFLRKNQCETITSLLQPAGSLGSYSSRSPHGGSTWSTSVVETDYDQYALLYLQGSKGPGEDFRGAILASRTQTPRAELKEKFTAFSKAQGFTEDTIVFLPQTDKCMTEQ

encoding yield [1]: 0.14
encoding yield [2]: 0.05
encoding yield [3]: 0.03
encoding yield [4]: 0.01
encoding yield [5]: 0.03
encoding yield [6]: 0.01
encoding yield [7]: 0.01
encoding yield [8]: 0.03
encoding yield [9]: 0.04
encoding yield [10]: 0.02
encoding yield [11]: 0.03
encoding yield [12]: 0.02
encoding yield [13]: 0.02
encoding yield [14]: 0.07
encoding yield [15]: 0.03
encoding yield [16]: 0.06
encoding yield [17]: 0.08
encoding yield [18]: 0.03
encoding yield [19]: 0.02
encoding yield [20]: 0.02
encoding yield [21]: 0.03
encoding yield [22]: 0.02
encoding yield [23]: 0.04
encoding yield [24]: 0.02
encoding yield [25]: 0.02
encoding yield [26]: 0.09
encoding yield [27]: 0.04
encoding yield [28]: 0.03
encoding yield [29]: 0.01
encoding yield [30]: 0.03
encoding yield [31]: 0.02
encoding yield [32]: 0.02
encoding yield [33]: 0.02
encoding yield [34]: 0.03
encoding yield [35]: 0.02
encoding yield [36]: 0.02
encoding yield [37]: 0.02
encoding yield [38]: 0.05
encoding yield [39]: 0.02
encoding yield [40]: 0.02
encoding yield [41]: 0.01
encoding yield [42]: 0.02
encoding yield [43]: 0.02
encoding yield [44]: 0.03
encoding yield [45]: 0.03
encoding yield [46]: 0.03
encoding yield [47]: 0.02
encoding yield [48]: 0.02
encoding yield [49]: 0.03
encoding yield [50]: 0.03
B3: engineered M44-L binder (SEQ ID NO: 31) (designed binder, not shown: small tags and cut ends; large carriers)
chain: QDSTQNLIPAPPLISVPLQPGFWTERFQGRWFLVGFAGNAVQKERQSRLTMQSLILELQEDNSYNITAINVRGQGCRYIISTLVPSSRPGQFTLGNIHSYPQIQSLDVQVADTDYDQFAMVFLQGTSENKQYFEVALAGRTKGLSDELKERFVSFAKSLGLKDNNIVFSVPTDQCIDN
